Source: patent US20250223354A1 (BIOTHEUS, published 2025)

T1: human PVRIG expressed on cells (human, UniProt Q6DKI7 41-326)
T1 construct: whole, on cells; cDNA encoding human PVRIG in pCHO1.0 for CHO cells; also called CHO-huPVRIG cells
T1 sequence (looked up): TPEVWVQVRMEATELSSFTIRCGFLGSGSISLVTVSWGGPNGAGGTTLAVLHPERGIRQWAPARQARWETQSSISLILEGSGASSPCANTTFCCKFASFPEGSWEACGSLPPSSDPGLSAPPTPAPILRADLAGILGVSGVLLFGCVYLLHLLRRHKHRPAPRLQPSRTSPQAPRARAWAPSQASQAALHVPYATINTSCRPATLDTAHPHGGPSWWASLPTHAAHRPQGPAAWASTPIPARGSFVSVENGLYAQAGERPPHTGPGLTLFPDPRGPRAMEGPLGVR

T2: human PVRIG protein with mouse IgG2a Fc tag (human; mouse, UniProt Q6DKI7 41-171, limits assumed)
T2 construct: Whole entry named; not shown: mouse IgG2a Fc tag
T2 sequence (looked up): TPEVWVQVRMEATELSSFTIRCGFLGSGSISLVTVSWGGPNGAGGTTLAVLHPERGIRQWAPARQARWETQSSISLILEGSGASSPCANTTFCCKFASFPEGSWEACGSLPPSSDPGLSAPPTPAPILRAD

T3: mouse PVRIG overexpressed on CHO cells (mouse, UniProt A0A1B0GS01 1-234)
T3 construct: also called CHO-muPVRIG cells
T3 sequence: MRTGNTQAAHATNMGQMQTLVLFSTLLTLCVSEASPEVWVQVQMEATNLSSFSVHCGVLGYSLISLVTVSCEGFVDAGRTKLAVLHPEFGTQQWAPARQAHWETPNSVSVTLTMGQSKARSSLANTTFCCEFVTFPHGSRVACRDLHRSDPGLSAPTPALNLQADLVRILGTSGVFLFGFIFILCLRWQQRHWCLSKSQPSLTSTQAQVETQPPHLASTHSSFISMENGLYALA

T4: cynomolgus PVRIG overexpressed on CHO cells (cynomolgus, UniProt A0A2K5WVV8 1-322)
T4 construct: whole, on cells; also called CHO-cynoPVRIG cells
T4 sequence: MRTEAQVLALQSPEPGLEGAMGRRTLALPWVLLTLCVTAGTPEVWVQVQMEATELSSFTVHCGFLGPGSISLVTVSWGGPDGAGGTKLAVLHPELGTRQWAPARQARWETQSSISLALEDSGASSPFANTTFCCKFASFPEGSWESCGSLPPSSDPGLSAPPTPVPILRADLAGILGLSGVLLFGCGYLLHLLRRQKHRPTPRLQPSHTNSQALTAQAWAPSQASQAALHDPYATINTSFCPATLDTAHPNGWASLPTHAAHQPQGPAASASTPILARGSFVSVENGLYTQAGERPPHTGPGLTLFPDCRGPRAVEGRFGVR

T5: human TIGIT expressed on cells (human, UniProt Q495A1 22-244)
T5 construct: whole, on cells; cDNA encoding human TIGIT in pCHO1.0 for CHO cells; also called CHO-huTIGIT cells
T5 sequence (looked up): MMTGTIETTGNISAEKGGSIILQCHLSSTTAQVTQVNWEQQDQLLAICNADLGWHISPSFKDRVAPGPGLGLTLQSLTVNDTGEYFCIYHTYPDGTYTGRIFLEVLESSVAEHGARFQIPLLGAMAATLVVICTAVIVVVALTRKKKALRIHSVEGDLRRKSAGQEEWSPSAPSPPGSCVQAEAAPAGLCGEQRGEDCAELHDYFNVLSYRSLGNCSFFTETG

T6: human TIGIT-his protein (human, UniProt Q495A1 22-141)
T6 construct: not shown: his tag
T6 sequence: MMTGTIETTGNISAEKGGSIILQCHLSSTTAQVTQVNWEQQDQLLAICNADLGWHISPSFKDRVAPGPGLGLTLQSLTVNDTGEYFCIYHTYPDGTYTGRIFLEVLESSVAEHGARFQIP

B1: anti-PVRIG monoclonal antibody ADI-56127-G1 (antibody, human IgG1, V domains shown)
VH: QVQLVQSGAEVKKPGSSVKVSCKASGGTESVDAISWVRQAPGQGLEWMGDIIPFFDTDYAQKFQGRVTITADESTSTAYMELSSLRSEDTAVYYCAREGGTSWTHFFDLWGRGTLVTVSS
VL: not shown
notes: Wild-type human IgG1 heavy chain constant region, human kappa light chain constant region; HEK293
B2: anti-PVRIG monoclonal antibody ADI-56127-G1LALA (antibody, human IgG1, V domains shown)
VH: B1 VH
VL: not shown
notes: Human IgG1 heavy chain constant region modified by L234A, L235A; human kappa light chain constant region; HEK293
B3: Tiragolumab (antibody, V domains shown)
VH: EVQLQQSGPGLVKPSQTLSLTCAISGDSVSSNSAAWNWIRQSPSRGLEWLGKTYYRFKWYSDYAVSVKGRITINPDTSKNQFSLQLNSVTPEDTAVFYCTRESTTYDLLAGPFDYWGQGTLVTVSS
VL: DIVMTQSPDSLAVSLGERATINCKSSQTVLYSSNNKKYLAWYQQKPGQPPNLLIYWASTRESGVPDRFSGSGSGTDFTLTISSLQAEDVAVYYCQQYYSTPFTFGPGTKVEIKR

Experiments:
[1] = target: T1, human PVRIG expressed on cells; test: flow cytometry, CHO-huPVRIG cells
Protocol: (§1) The overexpressing cells were expanded and adjusted to an appropriate cell density, and added to a 96-well flow cytometry plate. After centrifugation, the cells were added with a gradiently diluted sample to be tested, and incubated at 4° C. for 30 minutes. The cells were washed twice with PBS, and added with a fluorescent secondary antibody correspondingly diluted to an appropriate concentration, then incubated at 4° C. for 30 minutes, and washed twice with PBS. Cells were resuspended with PBS, and detected on a CytoFlex flow cytometer, and the corresponding MFI was calculated. Graphpad software was used for graphical analysis to obtain EC₅₀ values.

[2] = target: T2, human PVRIG protein with mouse IgG2a Fc …; test: flow cytometry, competition: human PVRIG-mouse IgG2a Fc (1 ug/mL) binding to CHO-huCD112 cells
Protocol: Specifically, CHO cells overexpressing human CD112 (CHO-huCD112 cells) were generated by transfection of the pCHO1.0 vector (purchased from Invitrogen) with cDNA encoding human CD112 cloned into the multiple cloning site (MCS), respectively, followed by pressure screening. The CHO-huCD112 cells were expanded and adjusted to a cell density of 2×10⁶ cells/mL, added to a 96-well flow plate at 100 μL/well, and centrifuged for later use. The purified monoclonal antibody was gradient diluted with PBS and the diluted sample was added to a blank 96-well flow plate at 60 μL/well. […] The above incubated samples were added at 100 μL/well to the 96-well flow plate containing CHO-huCD112 cells, incubated at 4° C. for 30 min and washed twice with PBS. APC-conjugated goat anti-mouse IgG antibody diluted 100-fold with PBS was added at 100 μL/well, incubated at 4° C. for 30 minutes and washed twice with PBS. Cells were resuspended with PBS at 100 μL/well, and detected on a CytoFlex flow cytometer, and the corresponding MFI was calculated.

[3] = target: T3, mouse PVRIG overexpressed on CHO cells; test: flow cytometry, CHO-muPVRIG cells
Protocol: as §1

[4] = target: T4, cynomolgus PVRIG overexpressed on CHO …; test: flow cytometry, CHO-cynoPVRIG cells
Protocol: as §1

[5] = target: Biotin-labeled mouse PVRIG huFc protein (mouse); test: competition ELISA: biotin mouse PVRIG-huFc binding to coated mouse CD112-his
Protocol: Specifically, mouse CD112-his protein diluted with 1× coating buffer to a final concentration of 1 μg/mL was added to the ELISA plate at 100 μL/well, covered with the film, and coated overnight at 4° C. The coating solution in the ELISA plate was discarded, and the ELISA plate was washed three times with 1×PBST and was blocked with 5% BSA/PBS at 200 μL/well for 2 hours at room temperature. During the blocking period, the samples to be tested were gradient diluted with 1% BSA/PBS to a final volume of 60 μL/well. […] The blocking solution in the ELISA plate was discarded, and the above sample mixture was added at 100 μL/well and incubated for 2 hours at room temperature. The above co-incubated samples were discarded, the ELISA plate was washed three times with 1×PBST, and SA-HRP diluted with 1% BSA/PBS was added at 100 μL/well and incubated for 1 hour at room temperature. The SA-HRP dilution was discarded, the ELISA plate was washed three times with 1×PBST, ELISA Chromogen Solution was added at 100 μL/well and incubated for 1-3 minutes at room temperature, ELISA stopping solution was added at 50 μL/well and the absorbance values were read at 450 nm.

[6] = target: T5, human TIGIT expressed on cells; test: flow cytometry on activated human primary T cells (TIGIT), readout positive cell (%); unit from the concentration axis
Description: The binding activity of the anti-TIGIT antibody of the present invention to TIGIT on the surface of activated T cells was detected based on the flow cytometry detection method.
Specifically, human PBMC were sorted according to the experimental protocol provided by […] Company (stemcell, Cat. No.: #17951C) to obtain human total T cells. […] The activated T cells were adjusted to an appropriate cell density and added to a 96-well flow cytometry plate. After centrifugation, the gradiently diluted sample to be tested was added, and incubated at 4° C. for 30 minutes. Washing was carried out twice with PBS, and a fluorescent secondary antibody diluted to an appropriate concentration was added, incubated at 4° C. for 30 minutes, and washed twice with PBS. […]

[7] = target: T7, cynomolgus TIGIT overexpressed on CHO cells (cynomolgus, UniProt A0A7N9I9V4 89-312); test: flow cytometry on CHO cells overexpressing cynomolgus TIGIT, median fluorescence intensity PE-A; unit from the concentration axis
T7 construct: whole, on cells; also called CHO-cynoTIGIT cells
Description: as §1, with “Specifically, CHO cells overexpressing human TIGIT (CHO-huTIGIT cells), CHO cells overexpressing cynomolgus TIGIT (CHO-cynoTIGIT cells) and CHO cells overexpressing mouse TIGIT (CHO-muTIGIT cells) were generated by transfection of the pCHO1.0 vector (purchased from Invitrogen) with cDNA encoding human TIGIT, cynomolgus TIGIT and mouse TIGIT cloned into the multiple cloning site (MCS), respectively, followed by pressure screening. The overexpressing” for “The overexpressing”

[8] = target: T5, human TIGIT expressed on cells; test: flow cytometry blocking assay: binding of human CD155 protein with mouse IgG2a Fc tag to CHO cells overexpressing human TIGIT, median fluorescence intensity APC-A; unit from the concentration axis
Protocol: (§2) Specifically, the CHO-huTIGIT cells were expanded and adjusted to a cell density of 2×10⁶ cells/mL, added to a 96-well flow plate at 100 μL/well, and centrifuged for later use. The purified monoclonal antibodies were diluted 3-fold with PBS starting at 400 nM for a total of 12 concentration gradients. The diluted sample was added at 60 μL/well to the cells-carrying 96-well flow plate, and incubated at 4° C. for 30 minutes. […] APC-conjugated goat anti-mouse IgG antibody diluted 100-fold with PBS was added at 100 μL/well, incubated at 4° C. for 30 minutes, and washed twice with PBS. Cells were resuspended with PBS at 100 μL/well, and detected on a CytoFlex flow cytometer, and the corresponding MFI was calculated.

[9] = target: T5, human TIGIT expressed on cells; test: flow cytometry, competition with human CD155-mouse IgG2a Fc (2 ug/mL) on CHO-huTIGIT cells
Protocol: as §2

[10] = target: T5, human TIGIT expressed on cells; test: flow cytometry, CHO-huTIGIT cells
Description: as §1, with “Specifically, CHO cells overexpressing human TIGIT (CHO-huTIGIT cells), CHO cells overexpressing cynomolgus TIGIT (CHO-cynoTIGIT cells) and CHO cells overexpressing mouse TIGIT (CHO-muTIGIT cells) were generated by transfection of the pCHO1.0 vector (purchased from Invitrogen) with cDNA encoding human TIGIT, cynomolgus TIGIT and mouse TIGIT cloned into the multiple cloning site (MCS), respectively, followed by pressure screening. The overexpressing” for “The overexpressing”

[11] = target: T5, human TIGIT expressed on cells; test: flow cytometry on CHO cells overexpressing human TIGIT, median fluorescence intensity PE-A; unit from the concentration axis
Description: as §1, with “Specifically, CHO cells overexpressing human TIGIT (CHO-huTIGIT cells), CHO cells overexpressing cynomolgus TIGIT (CHO-cynoTIGIT cells) and CHO cells overexpressing mouse TIGIT (CHO-muTIGIT cells) were generated by transfection of the pCHO1.0 vector (purchased from Invitrogen) with cDNA encoding human TIGIT, cynomolgus TIGIT and mouse TIGIT cloned into the multiple cloning site (MCS), respectively, followed by pressure screening. The overexpressing” for “The overexpressing”

human TIGIT-his protein = target: T6, human TIGIT-his protein; test: BLI (ForteBio), IgG on AHQ sensor, 100 nM TIGIT-his, monovalent, 1:1 model
Protocol: (§3) Biofilm layer optical interference technology (ForteBio) was used to determine the binding and dissociation […] values of the anti-TIGIT monoclonal antibodies obtained in Example 1 to human, cynomolgus monkey and mouse TIGIT. Fortebio affinity measurements were performed according to existing methods (Este, P et al., High throughput solution-based measurement of antibody-antigen affinity and epitope binning. Mabs, 2013.5(2): p 270-8).
(§4) The antibody-loaded sensor was incubated in 100 nM TIGIT-his antigen to the plateau phase, and then the sensor was transferred to an analysis buffer and incubated for at least 2 minutes for measuring dissociation rate. The kinetic analysis was performed using a 1:1 binding model.

[12] = target: T8, cynomolgus monkey TIGIT-his protein (cynomolgus monkey); test: as above
T8 construct: also called Cynomolgus TIGIT-his; not shown: his tag
Protocol: as §3, §4

[13] = target: T7, cynomolgus TIGIT overexpressed on CHO …; test: flow cytometry, CHO-cynoTIGIT cells
Description: as §1, with “Specifically, CHO cells overexpressing human TIGIT (CHO-huTIGIT cells), CHO cells overexpressing cynomolgus TIGIT (CHO-cynoTIGIT cells) and CHO cells overexpressing mouse TIGIT (CHO-muTIGIT cells) were generated by transfection of the pCHO1.0 vector (purchased from Invitrogen) with cDNA encoding human TIGIT, cynomolgus TIGIT and mouse TIGIT cloned into the multiple cloning site (MCS), respectively, followed by pressure screening. The overexpressing” for “The overexpressing”

T7 sequence (A0A7N9I9V4 entry or part of it): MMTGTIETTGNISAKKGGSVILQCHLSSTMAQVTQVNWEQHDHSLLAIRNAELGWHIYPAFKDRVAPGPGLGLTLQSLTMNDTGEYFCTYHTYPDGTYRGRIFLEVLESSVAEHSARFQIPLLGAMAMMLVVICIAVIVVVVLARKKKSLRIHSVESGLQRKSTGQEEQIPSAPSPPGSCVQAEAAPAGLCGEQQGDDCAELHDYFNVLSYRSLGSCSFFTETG
T8 sequence (chain, as listed by the source): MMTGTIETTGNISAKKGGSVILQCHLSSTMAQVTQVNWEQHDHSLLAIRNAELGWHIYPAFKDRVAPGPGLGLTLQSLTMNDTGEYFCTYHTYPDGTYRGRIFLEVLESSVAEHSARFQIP

Row | Binder | EC50 [1] [nM] | IC50 [2] [nM] | EC50 [3] [nM] | EC50 [4] [nM] | IC50 [5] [nM] | EC50 [6] [nM] | EC50 [7] [nM] | IC50 [8] [nM] | IC50 [9] [nM] | EC50 [10] [nM] | EC50 [11] [nM] | Kd (human TIGIT-his protein) [nM] | Kd [12] [nM] | EC50 [13] [nM]
1 | B1 | 2.51 | 1.23 | 6.47 | 1.96 | 1.57 | – | – | – | – | – | – | – | – | –
2 | B2 | 2.44 | 1.36 | 5.38 | 1.98 | 1.78 | – | – | – | – | – | – | – | – | –
3 | B3 | – | – | – | – | – | 0.274 | 4.18 | 0.634 | 0.63 | 1.35 | 1.34 | 0.87 | 3.5 | 4.18
